Assay results from IntAct's records for PubMed 35512704.

B1: Mothers against decapentaplegic homolog 4 (Homo sapiens), Q13485 (parent)
chain: MDNMSITNTPTSNDACLSIVHSLMCHRQGGESETFAKRAIESLVKKLKEKKDELDSLITAITTNGAHPSKCVTIQRTLDGRLQVAGRKGFPHVIYARLWRWPDLHKNELKHVKYCQYAFDLKCDSVCVNPYHYERVVSPGIDLSGLTLQSNAPSSMMVKDEYVHDFEGQPSLSTEGHSIQTIQHPPSNRASTETYSTPALLAPSESNATSTANFPNIPVASTSQPASILGGSHSEGLLQIASGPQPGQQQNGFTGQPATYHHNSTTTWTGSRTAPYTPNLPHHQNGHLQHHPPMPPHPGHYWPVHNELAFQPPISNHPAPEYWCSIAYFEMDVQVGETFKVPSSCPIVTVDGYVDPSGGDRFCLGQLSNVHRTEAIERARLHIGKGVQLECKGEGDVWVRCLSDHAVFVQSYYLDREAGRAPGDAVHKIYPSAYIKVFDLRQCHRQMQQQAATAQAAAAAQAAAVAGNIPGPGSVGGIAPAISLSAAAGIGVDDLRRLCILRMSFVKGWGPDYPRQSIKETPCWIEIHLHRALQLLDEVLHTMPIADPQPLD
partner: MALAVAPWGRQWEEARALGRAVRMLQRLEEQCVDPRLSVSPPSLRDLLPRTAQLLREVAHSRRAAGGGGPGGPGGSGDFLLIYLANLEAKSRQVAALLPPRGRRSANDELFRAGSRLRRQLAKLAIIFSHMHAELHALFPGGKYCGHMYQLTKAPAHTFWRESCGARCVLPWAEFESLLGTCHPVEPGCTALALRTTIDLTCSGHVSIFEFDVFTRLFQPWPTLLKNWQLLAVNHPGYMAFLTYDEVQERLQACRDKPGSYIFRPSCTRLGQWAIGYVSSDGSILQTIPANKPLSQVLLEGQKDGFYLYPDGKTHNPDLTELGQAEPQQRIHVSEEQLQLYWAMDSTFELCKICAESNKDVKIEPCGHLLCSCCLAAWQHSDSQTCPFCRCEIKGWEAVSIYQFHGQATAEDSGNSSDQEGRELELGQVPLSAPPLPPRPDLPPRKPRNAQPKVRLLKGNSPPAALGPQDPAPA
B2: Mothers against decapentaplegic homolog 4 (Homo sapiens), Q13485 (parent)
chain: B1 chain
partner: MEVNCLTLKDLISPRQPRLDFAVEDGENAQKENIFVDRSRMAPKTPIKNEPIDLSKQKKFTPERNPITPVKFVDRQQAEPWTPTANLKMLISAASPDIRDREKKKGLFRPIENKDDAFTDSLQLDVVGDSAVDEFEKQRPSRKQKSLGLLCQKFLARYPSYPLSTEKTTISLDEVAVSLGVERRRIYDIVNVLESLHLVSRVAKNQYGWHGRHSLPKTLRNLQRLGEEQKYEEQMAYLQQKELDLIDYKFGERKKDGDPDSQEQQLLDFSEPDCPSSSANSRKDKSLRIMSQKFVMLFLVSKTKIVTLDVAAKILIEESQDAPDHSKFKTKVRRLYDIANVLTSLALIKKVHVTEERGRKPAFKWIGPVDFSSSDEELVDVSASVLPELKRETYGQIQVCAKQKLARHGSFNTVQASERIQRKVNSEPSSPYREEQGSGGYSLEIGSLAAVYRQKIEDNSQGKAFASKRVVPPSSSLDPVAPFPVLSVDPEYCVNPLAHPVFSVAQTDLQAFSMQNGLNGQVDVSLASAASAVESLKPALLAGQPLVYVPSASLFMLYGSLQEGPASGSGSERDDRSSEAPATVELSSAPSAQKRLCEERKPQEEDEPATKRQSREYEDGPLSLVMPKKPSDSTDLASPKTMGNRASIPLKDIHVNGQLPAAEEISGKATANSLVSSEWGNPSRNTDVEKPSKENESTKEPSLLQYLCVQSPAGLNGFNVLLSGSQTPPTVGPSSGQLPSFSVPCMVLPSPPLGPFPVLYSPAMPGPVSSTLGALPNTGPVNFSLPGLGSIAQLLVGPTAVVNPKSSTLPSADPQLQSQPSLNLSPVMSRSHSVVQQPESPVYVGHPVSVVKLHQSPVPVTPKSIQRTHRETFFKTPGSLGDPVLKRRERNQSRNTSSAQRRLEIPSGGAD
B3: Mothers against decapentaplegic homolog 4 (Homo sapiens), Q13485 (parent)
chain: B1 chain
partner: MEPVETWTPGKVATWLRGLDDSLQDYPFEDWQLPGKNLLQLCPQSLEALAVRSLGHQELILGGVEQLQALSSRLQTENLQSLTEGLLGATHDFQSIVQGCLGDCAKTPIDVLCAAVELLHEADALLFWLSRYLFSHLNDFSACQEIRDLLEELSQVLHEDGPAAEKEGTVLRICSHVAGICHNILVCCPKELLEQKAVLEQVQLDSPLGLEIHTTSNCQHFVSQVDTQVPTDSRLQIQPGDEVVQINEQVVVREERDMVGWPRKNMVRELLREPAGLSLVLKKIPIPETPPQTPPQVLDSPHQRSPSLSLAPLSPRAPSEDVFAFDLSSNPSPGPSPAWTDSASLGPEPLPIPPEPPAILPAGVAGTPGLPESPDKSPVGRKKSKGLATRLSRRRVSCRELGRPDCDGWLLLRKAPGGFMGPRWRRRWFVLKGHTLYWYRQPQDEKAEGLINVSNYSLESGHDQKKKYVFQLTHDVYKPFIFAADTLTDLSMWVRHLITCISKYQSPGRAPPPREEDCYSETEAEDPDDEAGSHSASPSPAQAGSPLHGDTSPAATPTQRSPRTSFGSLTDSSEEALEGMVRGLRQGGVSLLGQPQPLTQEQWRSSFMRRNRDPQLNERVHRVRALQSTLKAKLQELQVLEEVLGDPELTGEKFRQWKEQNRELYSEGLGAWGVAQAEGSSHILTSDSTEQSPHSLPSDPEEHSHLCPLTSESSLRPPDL
B4: Mothers against decapentaplegic homolog 4 (Homo sapiens), Q13485 (parent)
chain: B1 chain
partner: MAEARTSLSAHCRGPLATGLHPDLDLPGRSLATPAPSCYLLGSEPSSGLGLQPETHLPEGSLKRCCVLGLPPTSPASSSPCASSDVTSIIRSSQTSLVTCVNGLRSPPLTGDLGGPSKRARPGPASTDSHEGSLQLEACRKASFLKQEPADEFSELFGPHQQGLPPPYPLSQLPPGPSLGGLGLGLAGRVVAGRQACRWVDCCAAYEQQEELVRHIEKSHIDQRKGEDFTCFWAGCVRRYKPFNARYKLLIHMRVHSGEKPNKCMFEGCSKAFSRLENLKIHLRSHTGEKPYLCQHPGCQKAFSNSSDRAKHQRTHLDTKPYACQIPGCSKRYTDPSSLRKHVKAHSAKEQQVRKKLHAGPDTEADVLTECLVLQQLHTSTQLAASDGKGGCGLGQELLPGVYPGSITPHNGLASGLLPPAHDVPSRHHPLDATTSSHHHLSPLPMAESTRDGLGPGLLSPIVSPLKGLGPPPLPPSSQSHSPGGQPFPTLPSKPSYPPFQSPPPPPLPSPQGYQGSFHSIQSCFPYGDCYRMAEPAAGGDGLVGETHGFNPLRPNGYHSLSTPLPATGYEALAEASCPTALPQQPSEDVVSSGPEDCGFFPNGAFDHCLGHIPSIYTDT
B5: Mothers against decapentaplegic homolog 4 (Homo sapiens), Q13485 (parent)
chain: B1 chain
partner: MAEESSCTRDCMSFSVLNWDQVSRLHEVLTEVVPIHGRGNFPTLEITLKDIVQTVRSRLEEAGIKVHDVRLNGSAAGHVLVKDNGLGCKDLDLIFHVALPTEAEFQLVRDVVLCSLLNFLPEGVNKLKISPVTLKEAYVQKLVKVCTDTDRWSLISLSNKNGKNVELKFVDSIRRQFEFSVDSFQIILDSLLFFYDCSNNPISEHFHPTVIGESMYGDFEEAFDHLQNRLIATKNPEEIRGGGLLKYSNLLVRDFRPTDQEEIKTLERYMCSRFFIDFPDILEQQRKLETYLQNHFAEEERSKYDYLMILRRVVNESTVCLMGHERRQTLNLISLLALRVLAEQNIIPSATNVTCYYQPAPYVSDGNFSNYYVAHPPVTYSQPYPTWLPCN
B6: Mothers against decapentaplegic homolog 4 (Homo sapiens), Q13485 (parent)
chain: B1 chain
partner: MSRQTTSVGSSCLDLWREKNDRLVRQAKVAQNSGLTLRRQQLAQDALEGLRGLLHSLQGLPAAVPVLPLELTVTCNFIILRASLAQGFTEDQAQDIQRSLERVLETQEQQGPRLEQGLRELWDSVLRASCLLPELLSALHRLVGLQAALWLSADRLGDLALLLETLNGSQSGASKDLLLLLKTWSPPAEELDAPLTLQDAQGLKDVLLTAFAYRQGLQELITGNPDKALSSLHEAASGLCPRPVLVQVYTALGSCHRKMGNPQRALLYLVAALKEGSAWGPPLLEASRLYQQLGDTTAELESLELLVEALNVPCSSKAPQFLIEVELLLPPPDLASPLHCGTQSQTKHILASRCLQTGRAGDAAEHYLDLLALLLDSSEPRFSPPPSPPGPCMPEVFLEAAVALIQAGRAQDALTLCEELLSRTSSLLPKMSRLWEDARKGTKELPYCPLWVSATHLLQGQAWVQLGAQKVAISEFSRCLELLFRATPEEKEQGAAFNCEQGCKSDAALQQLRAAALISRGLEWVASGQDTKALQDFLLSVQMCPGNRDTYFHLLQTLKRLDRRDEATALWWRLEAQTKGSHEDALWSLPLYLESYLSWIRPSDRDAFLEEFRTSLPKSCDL
B7: Mothers against decapentaplegic homolog 4 (Homo sapiens), Q13485 (parent)
chain: B1 chain
partner: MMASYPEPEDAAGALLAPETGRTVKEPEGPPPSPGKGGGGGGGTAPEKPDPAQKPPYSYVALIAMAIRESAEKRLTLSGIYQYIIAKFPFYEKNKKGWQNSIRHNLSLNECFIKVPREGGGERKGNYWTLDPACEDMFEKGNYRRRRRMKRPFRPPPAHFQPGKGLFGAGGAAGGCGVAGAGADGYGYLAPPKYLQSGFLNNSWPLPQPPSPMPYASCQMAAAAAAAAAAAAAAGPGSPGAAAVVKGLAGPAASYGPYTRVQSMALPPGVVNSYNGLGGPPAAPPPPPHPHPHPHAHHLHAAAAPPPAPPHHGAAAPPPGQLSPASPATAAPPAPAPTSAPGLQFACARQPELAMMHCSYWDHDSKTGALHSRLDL

Variants of: B1
Details: with cblc_human CBLC
R361H was tested, and the “effect of a mutation on the interaction” value was “with no effect”.

Variants of: B1
Details: with cblc_human CBLC
Remark: another data set of the same source
For R361C, the “effect of a mutation on the interaction” value was “with no effect”.

Variants of: B1
Details: with cblc_human CBLC
Remark: another data set of the same source
In the case of D351H, the “effect of a mutation on the interaction” value is reported as “with no effect”.

Variants of: B2
Details: with e2f7_human E2F7, Q96AV8
For G386D, the “effect of a mutation on the interaction” value was “with no effect”.

Variants of: B2
Details: with e2f7_human E2F7, Q96AV8
Remark: another data set of the same source
D351H was tested, and the “effect of a mutation on the interaction” value was “with no effect”.

Variants of: B3
Details: with cnkr1_human CNKSR1, Q969H4
D351H was tested, and the “effect of a mutation on the interaction” value was “with no effect”.

Variants of: B3
Details: with cnkr1_human CNKSR1, Q969H4
Remark: another data set of the same source
In the case of G386D, the “effect of a mutation on the interaction” value is reported as “with no effect”.

Variants of: B3
Details: with cnkr1_human CNKSR1, Q969H4
Remark: another data set of the same source
R361H was tested, and the “effect of a mutation on the interaction” value was “with no effect”.

Variants of: B3
Details: with cnkr1_human CNKSR1, Q969H4
Remark: another data set of the same source
With R361C the “effect of a mutation on the interaction” value was “with no effect”.

Variants of: B4
Details: with glis1_human GLIS1, Q8NBF1
D351H was tested, and the “effect of a mutation on the interaction” value was “with no effect”.

Variants of: B4
Details: with glis1_human GLIS1, Q8NBF1
Remark: another data set of the same source
R361H was tested, and the “effect of a mutation on the interaction” value was “with no effect”.

Variants of: B4
Details: with glis1_human GLIS1, Q8NBF1
Remark: another data set of the same source
With G386D the “effect of a mutation on the interaction” value was “with no effect”.

Variants of: B5
Details: with tet5c_human TENT5C
G386D was tested, and the “effect of a mutation on the interaction” value was “with no effect”.

Variants of: B5
Details: with tet5c_human TENT5C
Remark: another data set of the same source
In the case of D351H, the “effect of a mutation on the interaction” value is reported as “with no effect”.

Variants of: B5
Details: with tet5c_human TENT5C
Remark: another data set of the same source
In the case of R361C, the “effect of a mutation on the interaction” value is reported as “with no effect”.

Variants of: B5
Details: with tet5c_human TENT5C
Remark: another data set of the same source
In the case of R361H, the “effect of a mutation on the interaction” value is reported as “with no effect”.

Variants of: B6
Details: with fancg_human FANCG
For G386D, the “effect of a mutation on the interaction” value was “with no effect”.

Variants of: B6
Details: with fancg_human FANCG
Remark: another data set of the same source
For D351H, the “effect of a mutation on the interaction” value was “with no effect”.

Variants of: B6
Details: with fancg_human FANCG
Remark: another data set of the same source
In the case of R361H, the “effect of a mutation on the interaction” value is reported as “with no effect”.

Variants of: B6
Details: with fancg_human FANCG
Remark: another data set of the same source
R361C was tested, and the “effect of a mutation on the interaction” value was “with no effect”.

Variants of: B7
Details: with foxl2_human FOXL2, P58012
R361H was tested, and the “effect of a mutation on the interaction” value was “with no effect”.

Variants of: B7
Details: with foxl2_human FOXL2, P58012
Remark: another data set of the same source
In the case of R361C, the “effect of a mutation on the interaction” value is reported as “with no effect”.

Variants of: B7
Details: with foxl2_human FOXL2, P58012
Remark: another data set of the same source
With D351H the “effect of a mutation on the interaction” value was “with no effect”.
